Laboratory results: patent publication US20220308072A1

Assays:
[1] = biological target: Recombinant, his tagged full length human frataxin protein (Abcam ab95502) (human) (UniProt Q16595); assay: Simoa sandwich 2-step (35 min-5 min); capture Ab-1; with helper beads; frataxin 167 pg/mL
[2] = biological target: Recombinant, his tagged full length human frataxin protein (Abcam ab95502) (human) (UniProt Q16595); assay: Simoa sandwich 3-step; capture Ab-1; frataxin 1000 pg/mL
[3] = biological target: Recombinant, his tagged full length human frataxin protein (Abcam ab95502) (human) (UniProt Q16595); assay: Simoa sandwich 2-step; capture Ab-1; frataxin 167 pg/mL
[4] = biological target: Recombinant, his tagged full length human frataxin protein (Abcam ab95502) (human) (UniProt Q16595); assay: Simoa sandwich 2-step (120 min-5 min); capture Ab-1; frataxin 24.7 pg/mL
[5] = biological target: Recombinant, his tagged full length human frataxin protein (Abcam ab95502) (human) (UniProt Q16595); assay: Simoa sandwich 2-step; capture Ab-1; frataxin 6.17 pg/mL
[6] = biological target: Recombinant, his tagged full length human frataxin protein (Abcam ab95502) (human) (UniProt Q16595); assay: Simoa sandwich 2-step; capture Ab-1; frataxin 100 pg/mL
[7] = biological target: Recombinant, his tagged full length human frataxin protein (Abcam ab95502) (human) (UniProt Q16595); assay: Simoa sandwich 3-step; capture Ab-2
[8] = biological target: Recombinant, his tagged full length human frataxin protein (Abcam ab95502) (human) (UniProt Q16595); assay: Simoa sandwich 2-step (120 min-5 min); capture Ab-1; Diluent 1 + 5% NCS; frataxin 2.47 pg/mL
[9] = biological target: Recombinant, his tagged full length human frataxin protein (Abcam ab95502) (human) (UniProt Q16595); assay: Simoa sandwich 2-step (120 min-5 min); capture Ab-1; Diluent 1 + 10% NCS; frataxin 0.274 pg/mL
[10] = biological target: Recombinant, his tagged full length human frataxin protein (Abcam ab95502) (human) (UniProt Q16595); assay: Simoa sandwich 3-step; capture Ab-2; remark: listed apart in the source
[11] = biological target: Recombinant, his tagged full length human frataxin protein (Abcam ab95502) (human) (UniProt Q16595); assay: Simoa sandwich; capture Ab-1; no helper beads; frataxin 18.5 pg/mL
[12] = biological target: Recombinant, his tagged full length human frataxin protein (Abcam ab95502) (human) (UniProt Q16595); assay: Simoa sandwich; capture Ab-1; no helper beads; frataxin 2.06 pg/mL
[13] = biological target: Recombinant, his tagged full length human frataxin protein (Abcam ab95502) (human) (UniProt Q16595); assay: Simoa sandwich 2-step; capture Ab-4; frataxin 100 pg/mL
[14] = biological target: Recombinant, his tagged full length human frataxin protein (Abcam ab95502) (human) (UniProt Q16595); assay: Simoa sandwich 3-step; capture Ab-1
[15] = biological target: Recombinant, his tagged full length human frataxin protein (Abcam ab95502) (human) (UniProt Q16595); assay: Simoa sandwich; capture Ab-1; no helper beads; frataxin 167 pg/mL

UniProt Q16595, sequence (Q16595 42-210): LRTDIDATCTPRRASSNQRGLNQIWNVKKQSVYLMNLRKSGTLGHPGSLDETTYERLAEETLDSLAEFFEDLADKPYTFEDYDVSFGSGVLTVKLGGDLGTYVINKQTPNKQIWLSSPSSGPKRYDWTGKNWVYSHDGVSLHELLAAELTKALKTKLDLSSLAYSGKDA

“Ab-3, mouse monoclonal [18A5DB1] to Frataxin (Abcam ab110328) (antibody)” gave an AEB Rep1 [1] of 9.19 AEB, an AEB Rep2 [1] of 9.19 AEB and an Ave AEB [1] of 9.19 AEB. The S/B [1] was 377, the Ave AEB [2] was 19.6 AEB and the S/B [2] was 333. For the same substance, the Ave AEB [3] was 15.1 AEB, the S/B [3] was 145 and the AEB rep1 [4] was 0.129 AEB. It also gave an AEB rep2 [4] of 0.117 AEB, an AEB rep3 [4] of 0.142 AEB and an Ave AEB [4] of 0.129 AEB. The S/B [4] was 15.7, the Ave AEB [5] was 0.737 AEB and the S/B [5] was 7.1. The Ave AEB [6] was 7.11 AEB, the S/B [6] was 88.8 and the LOD [7] was 0.65 pg/mL. For the same substance, the Ave AEB [8] was 0.0609 AEB, the S/B [8] was 3.37 and the Ave AEB [9] was 0.023 AEB. For the same substance, the S/B [9] was 1.27, the LOD [10] was 1.33 pg/mL and the AEB Rep1 [11] was 0.363 AEB. The AEB Rep2 [11] was 0.362 AEB, the Ave AEB [11] was 0.363 AEB and the S/B [11] was 16. For the same substance, the AEB Rep1 [12] was 0.0405 AEB, the AEB Rep2 [12] was 0.043 AEB and the Ave AEB [12] was 0.0418 AEB. It also gave a S/B [12] of 1.85, an Ave AEB [13] of 8.49 AEB and a S/B [13] of 69.3. It also gave an LOD [14] of 0.59 pg/mL, an AEB Rep1 [15] of 2.42 AEB and an AEB Rep2 [15] of 2.1 AEB. The Ave AEB [15] was 2.26 AEB and the S/B [15] was 100.
